According to patent US20190367592A1 (AC IMMUNE, published 2019):

B1: hu37D3.v28.F2 (antibody, V domains shown)
VH: EVQLVESGGGLVQPGGSLRLSCAASGLIFRSYGMSWVRQAPGKGLEWVATINSGGTYTYYPDSVKGRFTISRDNSKNTLYLQMNSLRAEDTAVYYCANSYSGAMDYWGQGTLVTVSS
VL: DDVLTQTPLSLPVTPGQPASISCRSSQSIVHTNGNTYFEWYLQKPGQSPQLLIYKVSNRFSGVPDRFSGSGSGTDFTLKISRVEAEDVGVYYCFQGSLVPWTFGQGTKVEIK
B2: hu37D3-H9.v30.5 (antibody, V domains shown)
VH: EVQLVESGGGLVQPGGSLRLSCAASGLIFRSYGMSWVRQAPGKGLEWVATINSGGTYTYYPDSVKGRFTISRDNSKNTLYLQMNSLRAEDTAVYYCANSYSGAMDYWGQGTLVTVSS
VL: DDVLTQTPLSLPVTPGQPASISCRSSQSIVHSIGNTYFEWYLQKPGQSPQLLIYKVSNRFSGVPDRFSGSGSGTDFTLKISRVEAEDVGVYYCFQGSLVPWTFGQGTKVEIK
B3: hu37D3.v29.13 (antibody, V domains shown)
VH: EVQLVESGGGLVQPGGSLRLSCAASGLIFRSYGMSWVRQAPGKGLEWVATINSGGTYTYYPDSVKGRFTISRDNSKNTLYLQMNSLRAEDTAVYYCANSYSGAMDYWGQGTLVTVSS
VL: EDVLTQTPLSLPVTPGQPASISCRSSQSIVHSNAKTYFEWYLQKPGQSPQLLIYKVSNRFSGVPDRFSGSGSGTDFTLKISRVEAEDVGVYYCFQGSLVPWTFGQGTKVEIK
B4: hu37D3-H9.v30.10 (antibody, V domains shown)
VH: EVQLVESGGGLVQPGGSLRLSCAASGLIFRSYGMSWVRQAPGKGLEWVATINSGGTYTYYPDSVKGRFTISRDNSKNTLYLQMNSLRAEDTAVYYCANSYSGAMDYWGQGTLVTVSS
VL: DDVLTQTPLSLPVTPGQPASISCRSSQSIVHSKGNTYFEWYLQKPGQSPQLLIYKVSNRFSGVPDRFSGSGSGTDFTLKISRVEAEDVGVYYCFQGSLVPWTFGQGTKVEIK
B5: hu37D3.v28.F3 (antibody, V domains shown)
VH: EVQLVESGGGLVQPGGSLRLSCAASGLIFRSYGMSWVRQAPGKGLEWVATINSGGTYTYYPDSVKGRFTISRDNSKNTLYLQMNSLRAEDTAVYYCANSYSGAMDYWGQGTLVTVSS
VL: DDVLTQTPLSLPVTPGQPASISCRSSQSIVHTNANTYFEWYLQKPGQSPQLLIYKVSNRFSGVPDRFSGSGSGTDFTLKISRVEAEDVGVYYCFQGSLVPWTFGQGTKVEIK
B6: hu37D3-H9.v5.1 (antibody, V domains shown)
VH: EVQLVESGGGLVQPGGSLRLSCAASGLIFRSYGMSWVRQAPGKGLEWVATINSGGTYTYYPDSVKGRFTISRDNSKNTLYLQMNSLRAEDTAVYYCANSYSGAMDYWGQGTLVTVSS
VL: EDVLTQTPLSLPVTPGQPASISCRSSQSIVHSNANTYFEWYLQKPGQSPQLLIYKVSNRFSGVPDRFSGSGSGTDFTLKISRVEAEDVGVYYCFQGSLVPWTFGQGTKVEIK
B7: hu37D3.v29.6 (antibody, V domains shown)
VH: EVQLVESGGGLVQPGGSLRLSCAASGLIFRSYGMSWVRQAPGKGLEWVATINSGGTYTYYPDSVKGRFTISRDNSKNTLYLQMNSLRAEDTAVYYCANSYSGAMDYWGQGTLVTVSS
VL: EDVLTQTPLSLPVTPGQPASISCRSSQSIVHSNGKTYFEWYLQKPGQSPQLLIYKVSNRFSGVPDRFSGSGSGTDFTLKISRVEAEDVGVYYCFQGSLVPWTFGQGTKVEIK
B8: hu37D3.v29.12 (antibody, V domains shown)
VH: EVQLVESGGGLVQPGGSLRLSCAASGLIFRSYGMSWVRQAPGKGLEWVATINSGGTYTYYPDSVKGRFTISRDNSKNTLYLQMNSLRAEDTAVYYCANSYSGAMDYWGQGTLVTVSS
VL: EDVLTQTPLSLPVTPGQPASISCRSSQSIVHSNAHTYFEWYLQKPGQSPQLLIYKVSNRFSGVPDRFSGSGSGTDFTLKISRVEAEDVGVYYCFQGSLVPWTFGQGTKVEIK
B9: hu37D3.v29.7 (antibody, V domains shown)
VH: EVQLVESGGGLVQPGGSLRLSCAASGLIFRSYGMSWVRQAPGKGLEWVATINSGGTYTYYPDSVKGRFTISRDNSKNTLYLQMNSLRAEDTAVYYCANSYSGAMDYWGQGTLVTVSS
VL: EDVLTQTPLSLPVTPGQPASISCRSSQSIVHSNGLTYFEWYLQKPGQSPQLLIYKVSNRFSGVPDRFSGSGSGTDFTLKISRVEAEDVGVYYCFQGSLVPWTFGQGTKVEIK
B10: hu37D3.v29.11 (antibody, V domains shown)
VH: EVQLVESGGGLVQPGGSLRLSCAASGLIFRSYGMSWVRQAPGKGLEWVATINSGGTYTYYPDSVKGRFTISRDNSKNTLYLQMNSLRAEDTAVYYCANSYSGAMDYWGQGTLVTVSS
VL: EDVLTQTPLSLPVTPGQPASISCRSSQSIVHSNAATYFEWYLQKPGQSPQLLIYKVSNRFSGVPDRFSGSGSGTDFTLKISRVEAEDVGVYYCFQGSLVPWTFGQGTKVEIK
B11: hu37D3.v29.9 (antibody, V domains shown)
VH: EVQLVESGGGLVQPGGSLRLSCAASGLIFRSYGMSWVRQAPGKGLEWVATINSGGTYTYYPDSVKGRFTISRDNSKNTLYLQMNSLRAEDTAVYYCANSYSGAMDYWGQGTLVTVSS
VL: EDVLTQTPLSLPVTPGQPASISCRSSQSIVHSNAQTYFEWYLQKPGQSPQLLIYKVSNRFSGVPDRFSGSGSGTDFTLKISRVEAEDVGVYYCFQGSLVPWTFGQGTKVEIK
B12: hu37D3.v29.10 (antibody, V domains shown)
VH: EVQLVESGGGLVQPGGSLRLSCAASGLIFRSYGMSWVRQAPGKGLEWVATINSGGTYTYYPDSVKGRFTISRDNSKNTLYLQMNSLRAEDTAVYYCANSYSGAMDYWGQGTLVTVSS
VL: EDVLTQTPLSLPVTPGQPASISCRSSQSIVHSNAETYFEWYLQKPGQSPQLLIYKVSNRFSGVPDRFSGSGSGTDFTLKISRVEAEDVGVYYCFQGSLVPWTFGQGTKVEIK
B13: hu37D3.v29.1 (antibody, V domains shown)
VH: EVQLVESGGGLVQPGGSLRLSCAASGLIFRSYGMSWVRQAPGKGLEWVATINSGGTYTYYPDSVKGRFTISRDNSKNTLYLQMNSLRAEDTAVYYCANSYSGAMDYWGQGTLVTVSS
VL: EDVLTQTPLSLPVTPGQPASISCRSSQSIVHSNGDTYFEWYLQKPGQSPQLLIYKVSNRFSGVPDRFSGSGSGTDFTLKISRVEAEDVGVYYCFQGSLVPWTFGQGTKVEIK
B14: hu37D3.v29.3 (antibody, V domains shown)
VH: EVQLVESGGGLVQPGGSLRLSCAASGLIFRSYGMSWVRQAPGKGLEWVATINSGGTYTYYPDSVKGRFTISRDNSKNTLYLQMNSLRAEDTAVYYCANSYSGAMDYWGQGTLVTVSS
VL: EDVLTQTPLSLPVTPGQPASISCRSSQSIVHSNGETYFEWYLQKPGQSPQLLIYKVSNRFSGVPDRFSGSGSGTDFTLKISRVEAEDVGVYYCFQGSLVPWTFGQGTKVEIK
B15: hu37D3.v29.14 (antibody, V domains shown)
VH: EVQLVESGGGLVQPGGSLRLSCAASGLIFRSYGMSWVRQAPGKGLEWVATINSGGTYTYYPDSVKGRFTISRDNSKNTLYLQMNSLRAEDTAVYYCANSYSGAMDYWGQGTLVTVSS
VL: EDVLTQTPLSLPVTPGQPASISCRSSQSIVHSNALTYFEWYLQKPGQSPQLLIYKVSNRFSGVPDRFSGSGSGTDFTLKISRVEAEDVGVYYCFQGSLVPWTFGQGTKVEIK
B16: hu37D3.v29.5 (antibody, V domains shown)
VH: EVQLVESGGGLVQPGGSLRLSCAASGLIFRSYGMSWVRQAPGKGLEWVATINSGGTYTYYPDSVKGRFTISRDNSKNTLYLQMNSLRAEDTAVYYCANSYSGAMDYWGQGTLVTVSS
VL: EDVLTQTPLSLPVTPGQPASISCRSSQSIVHSNGHTYFEWYLQKPGQSPQLLIYKVSNRFSGVPDRFSGSGSGTDFTLKISRVEAEDVGVYYCFQGSLVPWTFGQGTKVEIK
B17: hu37D3.v29.4 (antibody, V domains shown)
VH: EVQLVESGGGLVQPGGSLRLSCAASGLIFRSYGMSWVRQAPGKGLEWVATINSGGTYTYYPDSVKGRFTISRDNSKNTLYLQMNSLRAEDTAVYYCANSYSGAMDYWGQGTLVTVSS
VL: EDVLTQTPLSLPVTPGQPASISCRSSQSIVHSNGATYFEWYLQKPGQSPQLLIYKVSNRFSGVPDRFSGSGSGTDFTLKISRVEAEDVGVYYCFQGSLVPWTFGQGTKVEIK

How the values were obtained:
[1] = target: T1, recombinant human Tau monomer, 2N4R isoform (amino acids 2-441) (human, UniProt P10636-8 2-441); assay: SPR; Normalized Rmax post-stress (2 weeks 40 C) / pre-stress
T1 construct: range 2-441; N-terminal His-tag removed with TEV protease; also called monomeric Tau
T1 sequence (P10636 other isoform, or with tags, fused parts or gaps limits assumed): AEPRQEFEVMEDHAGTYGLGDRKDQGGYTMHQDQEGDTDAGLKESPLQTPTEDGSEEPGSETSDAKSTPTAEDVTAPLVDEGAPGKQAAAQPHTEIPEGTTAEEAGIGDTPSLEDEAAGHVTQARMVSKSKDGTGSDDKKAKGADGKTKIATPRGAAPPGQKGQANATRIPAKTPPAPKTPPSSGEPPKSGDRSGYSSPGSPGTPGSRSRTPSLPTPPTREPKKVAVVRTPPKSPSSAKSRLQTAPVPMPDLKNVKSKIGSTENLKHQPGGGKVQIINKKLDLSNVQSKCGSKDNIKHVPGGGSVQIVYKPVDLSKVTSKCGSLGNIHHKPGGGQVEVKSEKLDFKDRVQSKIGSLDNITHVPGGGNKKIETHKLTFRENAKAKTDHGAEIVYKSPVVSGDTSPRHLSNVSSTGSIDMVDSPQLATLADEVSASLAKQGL
Experimental: (§1) Briefly, IgGs in 1 mL culuture were captured using tip columns that were custom packed with 20 μL MabSelect SuRe resin (Glygen Corp & GE Healthcare). After washing with 1×PBS pH 7.4, IgGs were eluted into 160 μL of 50 mM phosphoric acid pH 3 and neutralized with 12 μL of 20×PBS pH 11. MabSelect SuRe tip columns were stripped in 0.1 M NaOH and regenerated with 1×PBS pH 7.4 for consecutive use of up to 15 times. Purified antibodies in 96-well format were normalized to 0.1 mg/ml using a Hamilton Star liquid handling robot. The “pre-stress” samples were kept at approximately 4° C. and the “post-stress” samples were incubated at 40° C. for two weeks in a PCR machine. Functional stability of the variants was compared by running surface plasmon resonance kinetics experiments with the “pre-stress” and “post-stress” antibody preps. The antibodies were assessed using a human antibody capture CM5 Series S chip generated using the GE Biacore human IgG capture kit and a Biacore T200 instrument. Antibodies diluted to 2 μg/ml were immobilized using a 15 second injection time and 10 μl/min flow rate. Binding to Tau monomer at 0 nM, 26.5 nM and 265 nM, at 25° C., using a flow rate of 40 μl/min, was monitored for a 180 second association phase followed by a 300 second dissociation phase. Samples were run in 10 mM HEPES pH7.4, 150 mM NaCl, 0.05% Tween 20 (HBSP) using a multi-cycle kinetics format. Data was analyzed using BIAevaluation software, fitting a 1:1 binding model. The resulting affinity (KD) values are shown in FIG. 8A-D. A Stability Index was also calculated, using the rationale that affinity-compromised antibodies (due for example to deamidation of key residues) are expected to contribute equally to the IgG capture level (“Ligand Level”) but to contribute less to the measured Tau binding, and that this would be reflected in the experimentally derived value for Rmax. To account for variations in the amount of each antibody captured, Rmax was normalized for the antibody capture level (as measured by “Ligand Level”, Response Units immobilized during antibody capture). Thus Normalized Rmax is calculated as the experimental Rmax (units=RU) divided by the “Ligand Level” (Evaluation output representing the RU captured during the hIgG capture step, units=RU), and Stability Index is calculated here as Normalized Rmax (post-stress) divided by Normalized Rmax (pre-stress).

[2] = target: T1, recombinant human Tau monomer, 2N4R …; assay: SPR, captured IgG, Tau monomer analyte, 1:1 model; fit-quality column: Yes
Experimental: as §1

| Binder | Stability Index [1] [%] | Kd [2] [nM] |
| --- | --- | --- |
| B1 | 51 | 1.9 |
| B2 | 80 | 29.1 |
| B3 | 79 | 6.7 |
| B4 | 84 | 16.1 |
| B5 | 70 | 9.5 |
| B6 | 72 | 4 |
| B7 | 62 | 1.4 |
| B8 | 50 | 7 |
| B9 | 90 | 4.6 |
| B10 | 67 | 27.9 |
| B11 | 86 | 7.3 |
| B12 | 100 | 17.4 |
| B13 | 70 | 13.5 |
| B14 | 93 | 5.6 |
| B15 | 92 | 22 |
| B16 | 64 | 1.4 |
| B17 | 76 | 4.9 |
